The target in assay [1] is T1, (GP)15: H-C(GP)15-OH.
T1 construct: synthetic, not coupled to BSA; also called poly-GP DPR protein peptide
T1 peptide: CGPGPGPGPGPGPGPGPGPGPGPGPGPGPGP
As to the kind of experiment: indirect ELISA, uncoupled peptide coated, antibody titrated [also D00014 FIG. 3H]. As for the experimental part: (§1) In brief, dipeptide repeat proteins were synthesized and purified by Schafer-N(Copenhagen, Denmark): (GA)₁₅: H-CHHHHHH(GA)₁₅-OH; (GP)₁₅: H-C(GP)₁₅-OH; (GR)₁₅: H-C(GR)₁₅-OH; (PA)₁₅: H-C(PA)₁₅-OH; (PR)₁₅: H—C(PR)₁₅-OH. DPR protein peptides were then conjugated via a bifunctional linker (SMCC) to bovine serum albumin (BSA). 96-well microplates (Corning Incorporated, Corning, USA) were coated with BSA-coupled or -uncoupled dipeptide repeat protein peptides at a concentration of either 5 μg/ml or 20 μg/ml in coating buffer (15 mM Na₂CO₃, 35 mM NaHCO₃, pH 9.42). Non-specific binding sites were blocked for 1 h at room temperature with PBS/0.1% Tween®-20 containing 2% BSA (Sigma-Aldrich, Buchs, Switzerland). Primary antibodies were diluted to the indicated concentrations and incubated 1 h at room temperature, followed by incubation with a donkey anti-human IgG Fcγ-specific antibody conjugated with HRP (Jackson ImmunoResearch Laboratories, Inc., West Grove, USA). Binding was determined by measurement of HRP activity in a standard colorimetric assay. EC₅₀ values were estimated by non-linear regression using GraphPad Prism software (San Diego, USA).

Assay [2] concerns the target T2, GA4: H-(GA)4HHHHHH-NH2.
T2 peptide: H-GAGAGAGAHHHHHH-NH2
Kind of assay: indirect ELISA, His-tagged peptide coated at 50 ug/ml, antibody titrated [also D00024 FIG. 7F]. From the text:
(§2) In brief, dipeptide repeat proteins were synthesized and purified by Schafer-N (Copenhagen, Denmark): GA₂₀: H-(GA)₂₀HHHHHH-NH₂; GA₁₀: H-(GA)₁₀HHHHHH-NH₂; GA₆: H-(GA)₆HHHHHH-NH₂; GA₅: H-(GA)₅HHHHHH-NH₂; GA₄: H-(GA)₄HHHHHH-NH₂; GA₃: H-(GA)₃HHHHHH-NH₂; GA₂: H-(GA)₂HHHHHH-NH₂; GP₂₀: H-(GP)₂₀HHHHHH-NH₂; GP₁₀: H-(GP)₁₀HHHHHH-NH₂; GP₆: H-(GP)₆HHHHHH-NH₂; GP₅: H-(GP)₅HHHHHH-NH₂; GP₄: H-(GP)₄HHHHHH-NH₂; GP₃: H-(GP)₃HHHHHH-NH₂; GP₂: H-(GP)₂HHHHHH-NH₂. GR₂₀: H-(GR)₂₀HHHHHH-NH₂; GR₁₀: H-(GR)₁₀HHHHHH-NH₂; GR₆: H-(GR)₆HHHHHH-NH₂; GR₅: H-(GR)₅HHHHHH-NH₂; GR₄: H-(GR)₄HHHHHH-NH₂; GR₃: H-(GR)₃HHHHHH-NH₂; GR₂: H-(GR)₂HHHHHH-NH₂; PA₂₀: H-(PA)₂₀HHHHHH-NH₂; PA₁₀: H-(PA)₁₀HHHHHH-NH₂; PA₆: H-(PA)₆HHHHHH-NH₂; PA₅: H-(PA)₅HHHHHH-NH₂; PA₄: H-(PA)₄HHHHHH-NH₂; PA₃: H-(PA)₃HHHHHH-NH₂; PA₂: H-(PA)₂HHHHHH-NH₂; PR₂₀: H-(PR)₂₀HHHHHH-NH₂; PR₁₀: H-(PR)₁₀HHHHHH-NH₂; PR₆: H-(PR)₆HHHHHH-NH₂; PR₅: H-(PR)₅HHHHHH-NH₂; PR₄: H-(PR)₄HHHHHH-NH₂; PR₃: H-(PR)₃HHHHHH-NH₂; PR₂: H-(PR)₂HHHHHH-NH₂. 96-well microplates (Corning Incorporated, Corning, USA) were coated with dipeptide repeat protein peptides at a concentration of 50 μg/ml in coating buffer (15 mM Na₂CO₃, 35 mM NaHCO₃, pH 9.42). Non-specific binding sites were blocked for 1 h at room temperature with PBS/0.1% Tween®-20 containing 2% BSA (Sigma-Aldrich, Buchs, Switzerland). Primary antibodies were diluted to the indicated concentrations and incubated 1 h at room temperature, followed by incubation with a donkey anti-human IgG Fcγ-specific antibody conjugated with HRP (Jackson ImmunoResearch Laboratories, Inc., West Grove, USA). Binding was determined by measurement of HRP activity in a standard colorimetric assay. EC₅₀ values were estimated by non-linear regression using GraphPad Prism software (San Diego, USA).

Assay [3] has as its target T3, GA2: H-(GA)2HHHHHH-NH2.
T3 peptide: H-GAGAHHHHHH-NH2
Described as above.
Source text: as §2

Assay [4] deals with T4, GA3: H-(GA)3HHHHHH-NH2.
T4 peptide: H-GAGAGAHHHHHH-NH2
The description is as above.
Source text: as §2

Assay [5] concerns the target T5, GA10: H-(GA)10HHHHHH-NH2 (C-terminal amide).
T5 peptide: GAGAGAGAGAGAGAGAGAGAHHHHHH
Described as above.
Source text: as §2

The target in assay [6] is T2, GA4: H-(GA)4HHHHHH-NH2. As to the kind of experiment: indirect ELISA, His-tagged peptide coated at 50 ug/ml, antibody titrated [also D00025 FIG. 7G].
Source text: as §2

Assay [7] has as its target T3, GA2: H-(GA)2HHHHHH-NH2. The description is as above.
Source text: as §2

Assay [8] concerns the target T4, GA3: H-(GA)3HHHHHH-NH2. The assay is described as above.
Source text: as §2

Assay [9] has as its target T6, GA5: H-(GA)5HHHHHH-NH2.
T6 peptide: H-GAGAGAGAGAHHHHHH-NH2
Described as above.
Source text: as §2

Assay [10] deals with T7, (GA)15: H-CHHHHHH(GA)15-OH.
T7 construct: synthetic, not coupled to BSA; also called poly-GA DPR protein peptide
T7 peptide: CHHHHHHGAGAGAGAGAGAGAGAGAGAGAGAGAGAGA
As to the kind of experiment: indirect ELISA, uncoupled peptide coated, antibody titrated [also D00012 FIG. 3B]. On the procedure:
as §1

Assay [11] concerns the target T7, (GA)15: H-CHHHHHH(GA)15-OH. Kind of assay: indirect ELISA, uncoupled peptide coated, antibody titrated [also D00013 FIG. 3E]. As for the experimental part:
as §1

B1: NI-308.46E9 (antibody, V domains shown)
VH: QVQLQESGPGLVKPSETLSLTCTVSGASISGSTYYWGWIRQPPGKGLEYIGRIYYSGSTYYNPSLKSRATISVDTSKNQLSLTLSSVTAADTAVYYCVRPFYAGSGNSPFDYWGQGTLVTVSS
VL: CEIVLTQSPATVSVSPGERATLSCRASQSVSTNLAWYQQKPGQPPRLLIYGASTRATGIPARFSGSGSGAEFTLTISSLQSEDFVVYYCQQYNNWPPAFGGGTKVEIK
notes: Recombinant complete human IgG1, kappa
As to B1, the EC50 in [1] was found to be 22000 pM.

B2: NI-308.15O7 (antibody, V domains shown)
VH: QVQLVESGGGVVQPGRSLRLSCAASGFTFSNHAMHWVRQAPGKGLEWVAVISYDGENTYYADSIEGRFTISRDNFKNTLFLQMYSLTADDTAMYFCARGGRRGHFTSYYLDYWGQGTLVTVSS
VL: CDIQMTQSPSSLSASVGDRVTITCRASQNIDKYLNWYQQIPGKAPKLLIYAASSLHSGVPSRFSGSGSGTDFSLTISSLQPEDFAIYYCQQSYSSFRTFGQGTKLEIK
Regarding B2, the binding result in assay [2], in assay [3] and in [4] was “no binding (tested: about 4x10^5 pM (last point))” in each case. The molecule further gave a half-maximal effective concentration (EC50) in [5] of 370 pM.

B3: NI-308.18F7 (antibody, V domains shown)
VH: QVQLQESGPGLVKPSETLSVTCTVSGGSINDYYWNWIRQPAGKGLEWIGRIYASGTINYNPSLQSRVTMSIDTSKNQFSLDLISVSAADTAVYYCARWGQVVGDYYYGMDVWGQGTTVTVSS
VL: EIVLTQSPLSLSVTPGEPASISCKSSQSLQHTNGYNYLDWYLLKPGQSPQLLIFLTSNRASGVPDRFSGSGSGTNFTLKISRVEAEDVGVYYCMEGIQLWTFGQGTKLEIK
notes: as for B1
With B3, the binding result in assay [6], in assay [7], in assay [8] and in [9] was “no binding (tested: about 4x10^5 pM (last point))” in each case. In addition, the EC50 in assay [10] came to 340 pM.

B4: NI-308.45C2 (antibody, V domains shown)
VH: QLQLQESGPGLVKPSQILSLTCAISGDSVFSNSAAWNWIRQSPSRGLEWLGRTYYRSKWDNDYAPSVKSRISINPDTSKNQFSLQLNSVTPEDTAVYYCAREVAYCGGDCYSVSFDYWGQGTLVTVSS
VL: not shown
notes: as for B1
Turning to B4, the EC50 in assay [11] came to 1100 pM.

Source of the values: patent US20200010567A1 (NEURIMMUNE, published 2020).
